Consider 125 sequences from the supplement of paper PMC9112550, “Optimization of the antimicrobial peptide Bac7 by deep mutational scanning” (BMC Biology, 2022).
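Also: peptides expressed intracellularly from a pBAD plasmid library in pooled LB shake-flask culture, induced with 0.3% L-arabinose, DNA abundance read by NGS, three biological replicates, DESeq2 with apeglm shrinkage.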

This data set concerns Escherichia coli TOP10. Kind of data set: shrunken log2 fold change of peptide-encoding DNA abundance (4.5 h post-induction vs induction); higher = less antimicrobial activity (less host growth inhibition). The note with it: time post-induction: 4.5 h; library: site-saturation at positions 5, 18, 19, 20.
Regarding RRIRWRPPRLPRPRPRPQQPPRP, the “shrunken log2 fold change” value is 0.383.

Consider RRIRFRPPRLPRPRPRPYNCPRP, for which the “shrunken log2 fold change” value was -0.768.

As for RRIRIRPPRLPRPRPRPPNTPRP, the “shrunken log2 fold change” value is -0.464.

For the sequence RRIRKRPPRLPRPRPRPSNAPRP, the “shrunken log2 fold change” value was -0.154.

On to RRIRGRPPRLPRPRPRPHLYPRP, for which the “shrunken log2 fold change” value is 0.155.

Take RRIRQRPPRLPRPRPRPGQPPRP: the “shrunken log2 fold change” value came to 0.385.

As to RRIRMRPPRLPRPRPRPLGHPRP, the “shrunken log2 fold change” value is 0.751.

In the case of RRIRQRPPRLPRPRPRPGDTPRP, the “shrunken log2 fold change” value was -0.223.

On to RRIRYRPPRLPRPRPRPCKFPRP, for which the “shrunken log2 fold change” value was -0.931.

For the sequence RRIRERPPRLPRPRPRPCRIPRP, the “shrunken log2 fold change” value was -0.0965.

On to RRIRLRPPRLPRPRPRPACMPRP, for which the “shrunken log2 fold change” value was 0.00459.

As to RRIRLRPPRLPRPRPRPVMNPRP, the “shrunken log2 fold change” value was -0.18.

With RRIRKRPPRLPRPRPRPDRYPRP, the “shrunken log2 fold change” value is -0.0261.

RRIRQRPPRLPRPRPRPQMIPRP: the “shrunken log2 fold change” value is -0.0977.

Turning to RRIRFRPPRLPRPRPRPFICPRP, the “shrunken log2 fold change” value was -0.65.

For the sequence RRIRTRPPRLPRPRPRPWREPRP, the “shrunken log2 fold change” value is -0.00743.

As to RRIRYRPPRLPRPRPRPLHVPRP, the “shrunken log2 fold change” value is -0.21.

Regarding RRIRTRPPRLPRPRPRPVARPRP, the “shrunken log2 fold change” value turned out to be 2.14.

For RRIRHRPPRLPRPRPRPHPLPRP, the “shrunken log2 fold change” value is -0.0572.

On to RRIRSRPPRLPRPRPRPPIHPRP, for which the “shrunken log2 fold change” value was -0.329.

Turning to RRIRHRPPRLPRPRPRPAINPRP, the “shrunken log2 fold change” value was -0.221.

Consider RRIRMRPPRLPRPRPRPKLRPRP, for which the “shrunken log2 fold change” value was -0.0111.

On to RRIRMRPPRLPRPRPRPDPLPRP, for which the “shrunken log2 fold change” value worked out at 0.255.

For the sequence RRIRKRPPRLPRPRPRPYMGPRP, the “shrunken log2 fold change” value is -0.00674.

Consider RRIRCRPPRLPRPRPRPLWDPRP, for which the “shrunken log2 fold change” value is -0.386.

Turning to RRIRGRPPRLPRPRPRPRWQPRP, the “shrunken log2 fold change” value amounted to 0.994.

Take RRIRVRPPRLPRPRPRPYHWPRP: the “shrunken log2 fold change” value is -0.633.

On to RRIRCRPPRLPRPRPRPAHDPRP, for which the “shrunken log2 fold change” value stood at 0.031.

Turning to RRIRVRPPRLPRPRPRPGRMPRP, the “shrunken log2 fold change” value was found to be 0.172.

For the sequence RRIRVRPPRLPRPRPRPIGQPRP, the “shrunken log2 fold change” value was 0.0922.

With RRIRKRPPRLPRPRPRPTLAPRP, the “shrunken log2 fold change” value stood at 1.19.

As for RRIRNRPPRLPRPRPRPFYSPRP, the “shrunken log2 fold change” value came to 0.0464.

As to RRIRARPPRLPRPRPRPYLQPRP, the “shrunken log2 fold change” value was -0.276.

RRIRLRPPRLPRPRPRPFQCPRP: the “shrunken log2 fold change” value is 0.000653.

In the case of RRIRLRPPRLPRPRPRPCYWPRP, the “shrunken log2 fold change” value is -0.317.

On to RRIRRRPPRLPRPRPRPWHHPRP, for which the “shrunken log2 fold change” value is -0.242.

As for RRIRVRPPRLPRPRPRPSYWPRP, the “shrunken log2 fold change” value is -0.341.

Consider RRIRERPPRLPRPRPRPLFNPRP, for which the “shrunken log2 fold change” value is -0.62.

Consider RRIRCRPPRLPRPRPRPEMGPRP, for which the “shrunken log2 fold change” value was 0.0517.

Turning to RRIRLRPPRLPRPRPRPAEHPRP, the “shrunken log2 fold change” value came to 0.141.

As to RRIRQRPPRLPRPRPRPATDPRP, the “shrunken log2 fold change” value was -0.0316.

For the sequence RRIRRRPPRLPRPRPRPPIDPRP, the “shrunken log2 fold change” value came to 0.144.

As for RRIRLRPPRLPRPRPRPDCAPRP, the “shrunken log2 fold change” value worked out at 0.239.

As for RRIRMRPPRLPRPRPRPLRCPRP, the “shrunken log2 fold change” value came to 1.61.

On to RRIRGRPPRLPRPRPRPDFQPRP, for which the “shrunken log2 fold change” value came to 1.01.

As for RRIRFRPPRLPRPRPRPDAHPRP, the “shrunken log2 fold change” value was -0.0702.

In the case of RRIRRRPPRLPRPRPRPYYRPRP, the “shrunken log2 fold change” value is -0.186.

Take RRIRWRPPRLPRPRPRPDPMPRP: the “shrunken log2 fold change” value amounted to 0.444.

Regarding RRIRLRPPRLPRPRPRPNAEPRP, the “shrunken log2 fold change” value was 0.143.

With RRIRDRPPRLPRPRPRPLACPRP, the “shrunken log2 fold change” value was 0.945.

Consider RRIRKRPPRLPRPRPRPVVLPRP, for which the “shrunken log2 fold change” value is -0.0253.

As to RRIRARPPRLPRPRPRPVADPRP, the “shrunken log2 fold change” value was 1.44.

As for RRIRERPPRLPRPRPRPPITPRP, the “shrunken log2 fold change” value is -0.351.

As to RRIRHRPPRLPRPRPRPFMKPRP, the “shrunken log2 fold change” value is -0.00214.

In the case of RRIRRRPPRLPRPRPRPESIPRP, the “shrunken log2 fold change” value was -0.195.

With RRIRFRPPRLPRPRPRPNHAPRP, the “shrunken log2 fold change” value is 0.0222.

For RRIRCRPPRLPRPRPRPSYMPRP, the “shrunken log2 fold change” value is -0.646.

As for RRIRLRPPRLPRPRPRPQFIPRP, the “shrunken log2 fold change” value is -0.433.

For the sequence RRIRERPPRLPRPRPRPCTSPRP, the “shrunken log2 fold change” value is -0.0275.

In the case of RRIRWRPPRLPRPRPRPSIMPRP, the “shrunken log2 fold change” value is -0.0893.

For RRIRRRPPRLPRPRPRPGCFPRP, the “shrunken log2 fold change” value turned out to be 0.5.

Regarding RRIRFRPPRLPRPRPRPIVHPRP, the “shrunken log2 fold change” value was -0.581.

With RRIRVRPPRLPRPRPRPVWHPRP, the “shrunken log2 fold change” value amounted to 0.119.

RRIRSRPPRLPRPRPRPWDKPRP: the “shrunken log2 fold change” value was -0.252.

For RRIRARPPRLPRPRPRPDPIPRP, the “shrunken log2 fold change” value was -0.521.

Take RRIRFRPPRLPRPRPRPYRFPRP: the “shrunken log2 fold change” value was -0.243.

For the sequence RRIRCRPPRLPRPRPRPMNMPRP, the “shrunken log2 fold change” value was -0.445.

As for RRIRIRPPRLPRPRPRPGIVPRP, the “shrunken log2 fold change” value is -0.399.

As for RRIRMRPPRLPRPRPRPWDSPRP, the “shrunken log2 fold change” value was -0.152.

On to RRIRFRPPRLPRPRPRPRWYPRP, for which the “shrunken log2 fold change” value is -0.351.

Regarding RRIRIRPPRLPRPRPRPFDYPRP, the “shrunken log2 fold change” value is -0.182.

As to RRIRCRPPRLPRPRPRPNWGPRP, the “shrunken log2 fold change” value was -0.0514.

In the case of RRIRRRPPRLPRPRPRPTCVPRP, the “shrunken log2 fold change” value was found to be 0.455.

In the case of RRIRDRPPRLPRPRPRPQHNPRP, the “shrunken log2 fold change” value was -0.554.

As for RRIRWRPPRLPRPRPRPWPVPRP, the “shrunken log2 fold change” value worked out at 0.502.

As for RRIRFRPPRLPRPRPRPCICPRP, the “shrunken log2 fold change” value was -0.136.

For RRIRNRPPRLPRPRPRPGWNPRP, the “shrunken log2 fold change” value turned out to be 0.324.

As to RRIRKRPPRLPRPRPRPYEMPRP, the “shrunken log2 fold change” value was 0.138.

Take RRIRTRPPRLPRPRPRPIAFPRP: the “shrunken log2 fold change” value was -0.0138.

As for RRIRYRPPRLPRPRPRPPSHPRP, the “shrunken log2 fold change” value was -0.383.

With RRIRGRPPRLPRPRPRPAGSPRP, the “shrunken log2 fold change” value was found to be 1.06.

For RRIRIRPPRLPRPRPRPSDQPRP, the “shrunken log2 fold change” value was -0.528.

RRIRGRPPRLPRPRPRPQQVPRP: the “shrunken log2 fold change” value was 0.564.

For RRIRHRPPRLPRPRPRPHAEPRP, the “shrunken log2 fold change” value is -0.0216.

Regarding RRIRMRPPRLPRPRPRPIFTPRP, the “shrunken log2 fold change” value was -0.0423.

With RRIRERPPRLPRPRPRPWMAPRP, the “shrunken log2 fold change” value was -0.0227.

With RRIRDRPPRLPRPRPRPIKHPRP, the “shrunken log2 fold change” value was -0.373.

With RRIRNRPPRLPRPRPRPVQYPRP, the “shrunken log2 fold change” value was -0.000777.

Consider RRIRGRPPRLPRPRPRPIGYPRP, for which the “shrunken log2 fold change” value was -0.017.

In the case of RRIRFRPPRLPRPRPRPTTTPRP, the “shrunken log2 fold change” value is 0.212.

For RRIRWRPPRLPRPRPRPSAVPRP, the “shrunken log2 fold change” value was determined as 0.6.

For the sequence RRIRDRPPRLPRPRPRPNNHPRP, the “shrunken log2 fold change” value was -0.543.

In the case of RRIRIRPPRLPRPRPRPFASPRP, the “shrunken log2 fold change” value was -0.675.

With RRIRMRPPRLPRPRPRPNGNPRP, the “shrunken log2 fold change” value was 0.261.

Take RRIRHRPPRLPRPRPRPGICPRP: the “shrunken log2 fold change” value was -0.154.

For the sequence RRIRDRPPRLPRPRPRPVMSPRP, the “shrunken log2 fold change” value is -0.257.

Regarding RRIRYRPPRLPRPRPRPVDYPRP, the “shrunken log2 fold change” value is -0.213.

Regarding RRIRWRPPRLPRPRPRPGCFPRP, the “shrunken log2 fold change” value turned out to be 0.375.

RRIRLRPPRLPRPRPRPPGTPRP: the “shrunken log2 fold change” value was found to be 0.448.

Consider RRIRLRPPRLPRPRPRPYGTPRP, for which the “shrunken log2 fold change” value is -0.68.

For RRIRSRPPRLPRPRPRPLIDPRP, the “shrunken log2 fold change” value is -0.197.

For the sequence RRIRWRPPRLPRPRPRPGAFPRP, the “shrunken log2 fold change” value is 0.3.

For RRIRSRPPRLPRPRPRPPSVPRP, the “shrunken log2 fold change” value was determined as 0.279.

Regarding RRIRHRPPRLPRPRPRPGSLPRP, the “shrunken log2 fold change” value stood at 0.134.

Regarding RRIRERPPRLPRPRPRPFFFPRP, the “shrunken log2 fold change” value was found to be 0.0253.

RRIRTRPPRLPRPRPRPGRVPRP: the “shrunken log2 fold change” value stood at 0.744.

RRIRQRPPRLPRPRPRPNEEPRP: the “shrunken log2 fold change” value was 2.87.

On to RRIRCRPPRLPRPRPRPFQKPRP, for which the “shrunken log2 fold change” value worked out at 0.0129.

As for RRIRGRPPRLPRPRPRPTLDPRP, the “shrunken log2 fold change” value stood at 0.93.

Consider RRIRWRPPRLPRPRPRPGIDPRP, for which the “shrunken log2 fold change” value is 0.117.

On to RRIRIRPPRLPRPRPRPPYRPRP, for which the “shrunken log2 fold change” value is -0.468.

Regarding RRIRQRPPRLPRPRPRPSCRPRP, the “shrunken log2 fold change” value is -0.28.

For RRIRGRPPRLPRPRPRPCDPPRP, the “shrunken log2 fold change” value is 0.228.

As for RRIRARPPRLPRPRPRPGTQPRP, the “shrunken log2 fold change” value amounted to 0.316.

Turning to RRIRQRPPRLPRPRPRPCTHPRP, the “shrunken log2 fold change” value was -0.502.

RRIRIRPPRLPRPRPRPPQGPRP: the “shrunken log2 fold change” value came to 0.123.

For RRIRKRPPRLPRPRPRPTEMPRP, the “shrunken log2 fold change” value is 0.25.

Regarding RRIRGRPPRLPRPRPRPNIGPRP, the “shrunken log2 fold change” value was determined as 0.138.

As to RRIRKRPPRLPRPRPRPCMAPRP, the “shrunken log2 fold change” value was 0.0448.

For the sequence RRIRHRPPRLPRPRPRPYNEPRP, the “shrunken log2 fold change” value turned out to be 0.0187.

For RRIRYRPPRLPRPRPRPNYSPRP, the “shrunken log2 fold change” value was -1.39.

Consider RRIRKRPPRLPRPRPRPFHWPRP, for which the “shrunken log2 fold change” value amounted to 0.111.

RRIRIRPPRLPRPRPRPNTRPRP: the “shrunken log2 fold change” value is -0.507.

With RRIRRRPPRLPRPRPRPHCTPRP, the “shrunken log2 fold change” value was -0.18.

For RRIRRRPPRLPRPRPRPSVEPRP, the “shrunken log2 fold change” value was 0.0256.
